Measurements taken from US20240343811A1 (SHANDONG SIMCERE BIOPHARMACUTICAL, published 2024).
Positions count from the first letter of the chain named.

How the values were obtained:
[1] = target: T1, human CD16a (158F), full length, on FlpinCHO cells (human, UniProt P08637 17-254); experiment: FACS on FlpinCHO cells
Method in brief: (§1)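 EC50 comes from fitted concentration–MFI curves. Antibody dilutions were bound to the cells for 1 hour on ice in PBS blocking buffer with 2% BSA, followed by washing and flow cytometric readout.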

[2] = target: T2, human CD16a (158V), full length, on cells (human, UniProt P08637 17-254); experiment: FACS on FlpinCHO cells
T2 construct: also used as target for the bought Jurkat-NFAT reporter line stably expressing human CD16a (158V); also called FlpinCHO-human CD16a (158V); FlpinCHO-CD16a (158V)
Method in brief: as §1

[3] = target: T3, human CD16b (NA1), full length, on FlpinCHO cells (human, UniProt O75015 17-200); experiment: FACS on FlpinCHO cells
T3 construct: also called FlpinCHO-human CD16b (NA1)
T3 chain: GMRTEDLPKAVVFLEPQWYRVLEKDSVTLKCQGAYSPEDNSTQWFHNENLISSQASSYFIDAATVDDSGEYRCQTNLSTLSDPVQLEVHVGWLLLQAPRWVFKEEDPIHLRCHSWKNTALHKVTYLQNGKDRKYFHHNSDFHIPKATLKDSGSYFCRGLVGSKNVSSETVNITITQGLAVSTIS
Method in brief: (§2)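 EC50 values come from fitted MFI curves measured by FACS. Antibody dilutions were bound for 1 hour on ice to CD16b-transfected FlpinCHO cells suspended in PBS with 2% BSA blocking solution.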

[4] = target: T4, CD16 on primary human NK cells (human, UniProt P08637 17-254); experiment: FACS on human NK cells
T4 construct: whole, on cells; also called resting NK cells
Method in brief: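 EC50 came from curve fitting of flow-cytometric MFI. Antibody titrations were bound for 1 hour on ice to fresh human NK cells blocked in PBS with 2% (w/w) BSA (2×10⁶ cells/ml), followed by five PBS washes before acquisition.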

[5] = target: T2, human CD16a (158V), full length, on …; experiment: cell-based or functional assay
[6] = target: T1, human CD16a (158F), full length, on …; experiment: FACS, biotinylated antibody
[7] = target: T2, human CD16a (158V), full length, on …; experiment: FACS, biotinylated antibody
[8] = target: T4, CD16 on primary human NK cells; experiment: FACS on human NK cells, biotinylated antibody
Human CD16a (158F)-his = target: T5, Human CD16a (158F)-his (human); experiment: SPR (Biacore), antibody captured on Protein A
T5 construct: entry holds ECD, AVI tag, linker and His tag
Method in brief: (§3)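 Protein A–captured antibody was probed with CD16-his ECD in HBS-EP+ at 25 °C: five 2-fold dilutions from 200 nM, 240 s at 30 μL/min, dissociation up to 600 s. Glycine pH 1.5 regenerated the chip. Apparent KD came from a double-referenced 1:1 Langmuir fit.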

Human CD16a (158V)-his = target: T6, Human CD16a (158V)-his (human); experiment: SPR (Biacore), antibody captured on Protein A
T6 construct: entry holds ECD, AVI tag, linker and His tag
Method in brief: as §3

Human CD16b (NA1)-his = target: T7, Human CD16b (NA1)-his (human); experiment: SPR (Biacore), antibody captured on Protein A
T7 construct: entry holds ECD, linker, His tag and AVI tag
T7 chain: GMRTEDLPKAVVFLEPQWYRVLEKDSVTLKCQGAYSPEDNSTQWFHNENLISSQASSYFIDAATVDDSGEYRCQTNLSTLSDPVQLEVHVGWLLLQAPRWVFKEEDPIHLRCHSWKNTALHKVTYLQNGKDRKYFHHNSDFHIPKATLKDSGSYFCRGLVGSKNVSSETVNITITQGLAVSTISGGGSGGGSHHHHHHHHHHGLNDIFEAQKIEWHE
Method in brief: as §3

[9] = target: T1, human CD16a (158F), full length, on …; experiment: FACS, biotinylated antibody, +10 mg/mL human immunoglobulin
[10] = target: T2, human CD16a (158V), full length, on …; experiment: as above
[11] = target: T4, CD16 on primary human NK cells; experiment: FACS on human NK cells, biotinylated antibody, +10 mg/mL human immunoglobulin
[12] = target: T8, human CD16b (NA2), full length, on FlpinCHO cells (human, UniProt O75015 17-200); experiment: FACS on FlpinCHO cells
T8 construct: also called FlpinCHO-human CD16b (NA2)
T8 chain: T3 chain with R20S, N49S, D66N, V90I
Method in brief: as §2

[13] = target: T9, cynomolgus monkey CD16, full length, on FlpinCHO cells (cynomolgus monkey, UniProt Q8SPW2 17-254); experiment: FACS on FlpinCHO cells
T9 construct: also called FlpinCHO-cyno CD16; Flipin CHO-cyno CD16
Experimental: The required cells were scale-up cultured in a T-75 cell culture flask to the logarithmic growth phase. The medium was aspirated, and the cells were washed twice with a PBS buffer and then digested with trypsin. After the digestion was terminated, the cells were washed twice with the PBS buffer. The cells were counted, and then the cell pellet was resuspended with a [PBS+2% (w/w) BSA] blocking solution to 2×10⁶ cells/ml, and added to a 96-well FACS reaction plate at 50 μl/well. […] 50 μl/well of the antibody to be detected was added at different concentrations, and incubated on ice for 1 hour. […] The mixture was centrifuged and washed 5 times with PBS, and FACS (FACS Canto II, purchased from BD Company) was used for detection and result analysis. Data analysis was performed by software (CellQuest) to obtain the mean fluorescence intensity (MFI) of the cells. Then, software (GraphPad Prism8) was used for analysis, data fitting and EC50 value calculation.
Flipin CHO-cyno CD16 cells were subjected to FACS detection and data analysis according to the method of Example 3.1.

T9 sequence (Q8SPW2 other isoform, or with tags, fused parts or gaps limits assumed): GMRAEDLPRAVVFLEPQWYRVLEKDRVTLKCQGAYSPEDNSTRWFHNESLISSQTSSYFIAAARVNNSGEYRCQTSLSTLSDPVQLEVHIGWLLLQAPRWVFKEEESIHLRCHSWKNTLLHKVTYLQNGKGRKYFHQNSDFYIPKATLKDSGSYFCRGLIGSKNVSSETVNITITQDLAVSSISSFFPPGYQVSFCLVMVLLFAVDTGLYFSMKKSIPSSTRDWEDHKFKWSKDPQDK

B1: VHH05 VHH-Fc antibody (Fc fusion)
chain: QVQLVESGGGLVQAGGSLRLSCVASSSTVTTYAVRWYRQAPGKQREWVAFISVDGNTNYPDSVKGRFIVSRDNAKNTVYLQMNSLKPEDTADYICRAGGQYWGQGTQVTVSSEPKSSDKTHTCPPCPAPEFEGGPSVFLFPPKPKDTLMISRTPEVTCVVVAVSHEDPEVKFNWYVDGVEVHNAKTKPREEQYNSTYRVVSVLTVLHQDWLNGKEYKCKVSNKALPAPIEKTISKAKGQPREPQVYTLPPSREEMTKNQVSLTCLVKGFYPSDIAVEWESNGQPENNYKTTPPVLDSDGSFFLYSKLTVDKSRWQQGNVFSCSVMHEALHNHYTQKSLSLSPGK
EC50 [1]: 0.49 nM
Maximum mean fluorescence intensity [1]: 7320
EC50 [2]: 0.53 nM
Maximum mean fluorescence intensity [2]: 8100
EC50 [3]: 0.96 nM
Maximum mean fluorescence intensity [3]: 42500
EC50 [4]: 0.62 nM
Maximum mean fluorescence intensity [4]: 2560
EC50, activation activity for Jurkat cell [5]: 0.03 nM
Maximum fluorescence value [5]: 171000
EC50 [6]: 0.33 nM
Maximum mean fluorescence intensity [6]: 8780
EC50 [7]: 0.74 nM
Maximum mean fluorescence intensity [7]: 12400
EC50 [8]: 1.15 nM
Maximum mean fluorescence intensity [8]: 63200
Kd (Human CD16a (158F)-his): 8.16 nM
koff (Human CD16a (158F)-his): 0.000499 s⁻¹
kon (Human CD16a (158F)-his): 61200 M⁻¹ s⁻¹
Kd (Human CD16a (158V)-his): 3.73 nM
koff (Human CD16a (158V)-his): 0.000321 s⁻¹
kon (Human CD16a (158V)-his): 86100 M⁻¹ s⁻¹
Kd (Human CD16b (NA1)-his): 9.28 nM
koff (Human CD16b (NA1)-his): 0.000958 s⁻¹
kon (Human CD16b (NA1)-his): 103000 M⁻¹ s⁻¹
EC50 [9]: 1.51 nM
Maximum mean fluorescence intensity [9]: 10000
EC50 [10]: 1.7 nM
Maximum mean fluorescence intensity [10]: 13300
EC50 [11]: 2.94 nM
Maximum mean fluorescence intensity [11]: 72800

B2: VHH14 VHH-Fc antibody (Fc fusion)
chain: EVQLVESGGGLVQAGGSLRLSCAASGITFSSYAMAWYRQDPGKQRELVAAINRFGLTNYADSVKGRFTISRDNAKNTVYLEMTSLKPEDTAVYYCNTGGVYSHPNYYTGTYWGQGTQVTVSSEPKSSDKTHTCPPCPAPEFEGGPSVFLFPPKPKDTLMISRTPEVTCVVVAVSHEDPEVKFNWYVDGVEVHNAKTKPREEQYNSTYRVVSVLTVLHQDWLNGKEYKCKVSNKALPAPIEKTISKAKGQPREPQVYTLPPSREEMTKNQVSLTCLVKGFYPSDIAVEWESNGQPENNYKTTPPVLDSDGSFFLYSKLTVDKSRWQQGNVFSCSVMHEALHNHYTQKSLSLSPGK
EC50 [1]: 0.23 nM
Maximum mean fluorescence intensity [1]: 5750
EC50 [2]: 0.27 nM
Maximum mean fluorescence intensity [2]: 6250
EC50 [3]: 0.93 nM
Maximum mean fluorescence intensity [3]: 41900
EC50 [12]: 1.44 nM
Maximum mean fluorescence intensity [12]: 61400
EC50 [4]: 0.17 nM
Maximum mean fluorescence intensity [4]: 2620
EC50 [13]: 0.18 nM
Maximum mean fluorescence intensity [13]: 16400
EC50, activation activity for Jurkat cell [5]: 0.02 nM
Maximum fluorescence value [5]: 169000
EC50 [6]: 0.27 nM
Maximum mean fluorescence intensity [6]: 5510
EC50 [7]: 0.38 nM
Maximum mean fluorescence intensity [7]: 8180
Kd (Human CD16a (158F)-his): 25 nM
koff (Human CD16a (158F)-his): 0.0296 s⁻¹
kon (Human CD16a (158F)-his): 1.18e+06 M⁻¹ s⁻¹
Kd (Human CD16a (158V)-his): 19.3 nM
koff (Human CD16a (158V)-his): 0.0602 s⁻¹
kon (Human CD16a (158V)-his): 3.12e+06 M⁻¹ s⁻¹
EC50 [9]: 0.91 nM
Maximum mean fluorescence intensity [9]: 5070
EC50 [10]: 1.1 nM
Maximum mean fluorescence intensity [10]: 7900

B3: VHH13 VHH-Fc antibody (Fc fusion)
chain: B2 chain with L4V, A35G, D40A, N76S, E81Q, N105D
EC50 [1]: 0.18 nM
Maximum mean fluorescence intensity [1]: 6020
EC50 [2]: 0.24 nM
Maximum mean fluorescence intensity [2]: 6660
EC50 [3]: 0.77 nM
Maximum mean fluorescence intensity [3]: 51400
EC50 [12]: 1.11 nM
Maximum mean fluorescence intensity [12]: 70200
EC50 [4]: 0.15 nM
Maximum mean fluorescence intensity [4]: 2630
EC50 [13]: 0.24 nM
Maximum mean fluorescence intensity [13]: 21400
EC50, activation activity for Jurkat cell [5]: 0.02 nM
Maximum fluorescence value [5]: 165000
EC50 [6]: 0.16 nM
Maximum mean fluorescence intensity [6]: 6240
EC50 [7]: 0.25 nM
Maximum mean fluorescence intensity [7]: 9620
Kd (Human CD16a (158F)-his): 22.2 nM
koff (Human CD16a (158F)-his): 0.0192 s⁻¹
kon (Human CD16a (158F)-his): 866000 M⁻¹ s⁻¹
Kd (Human CD16a (158V)-his): 19.8 nM
koff (Human CD16a (158V)-his): 0.0362 s⁻¹
kon (Human CD16a (158V)-his): 1.83e+06 M⁻¹ s⁻¹
EC50 [9]: 0.67 nM
Maximum mean fluorescence intensity [9]: 5830
EC50 [10]: 1.09 nM
Maximum mean fluorescence intensity [10]: 9660
